Measured values: the supplement of paper PMC11246515
± gives the standard deviation of the averaged measurements.

Assay: total protein half-life in vivo (active degradation + dilution); higher = more stable protein
[1] = E. coli NCM3722 delta-clpP delta-lon delta-hslV, growth: N-lim chemostat, doubling time 6 h
[2] = E. coli NCM3722 delta-clpP, growth: N-lim chemostat, doubling time 6 h
[3] = E. coli NCM3722 delta-hslV, growth: N-lim chemostat, doubling time 6 h
[4] = E. coli NCM3722 delta-lon, growth: N-lim chemostat, doubling time 6 h
[5] = E. coli NCM3722 delta-smpB, growth: N-lim chemostat, doubling time 6 h
[6] = wild type E. coli NCM3722, growth: C-lim chemostat, doubling time 3 h
[7] = wild type E. coli NCM3722, growth: C-lim chemostat, doubling time 6 h
[8] = wild type E. coli NCM3722, growth: C-lim chemostat, doubling time 12 h
[9] = wild type E. coli NCM3722, growth: N-lim chemostat, doubling time 6 h
[10] = wild type E. coli NCM3722, growth: N-lim chemostat, doubling time 12 h
[11] = wild type E. coli NCM3722, growth: P-lim chemostat, doubling time 6 h
[12] = wild type E. coli NCM3722, growth: P-lim chemostat, doubling time 12 h

Sequence	total protein half-life in vivo [1]	total protein half-life in vivo [2]	total protein half-life in vivo [3]	total protein half-life in vivo [4]	total protein half-life in vivo [5]	total protein half-life in vivo [6]	total protein half-life in vivo [7]	total protein half-life in vivo [8]	total protein half-life in vivo [9]	total protein half-life in vivo [10]	total protein half-life in vivo [11]	total protein half-life in vivo [12]
MHITLRQLEVFAEVLKSGSTTQASVMLALSQSAVSAALTDLEGQLGVQLFDRVGKRLVVNEHGRLLYPRALALLEQAVEIEQLFREDNGAIRIYASSTIGNYILPAVIARYRHDYPQLPIELSVGNSQDVMQAVLDFRVDIGFIEGPCHSTEIISEPWLEDELVVFAAPTSPLARGPVTLEQLAAAPWILRERGSGTREIVDYLLLSHLPKFEMAMELGNSEAIKHAVRHGLGISCLSRRVIEDQLQAGTLSEVAVPLPRLMRTLWRIHHRQKHLSNALRRFLDYCDPANVPR [P0ACR4]	5.84 ± 0.54 h	7.58 h	5.48 h	5.76 ± 0.15 h	6.21 h	2.32 h	5.78 ± 0.65 h	13 h	4.98 ± 0.021 h	9.4289 ± 0.0056 h	5.59 ± 0.33 h	10.5 ± 1.9 h
MAKQPGLDFQSAKGGLGELKRRLLFVIGALIVFRIGSFIPIPGIDAAVLAKLLEQQRGTIIEMFNMFSGGALSRASIFALGIMPYISASIIIQLLTVVHPTLAEIKKEGESGRRKISQYTRYGTLVLAIFQSIGIATGLPNMPGMQGLVINPGFAFYFTAVVSLVTGTMFLMWLGEQITERGIGNGISIIIFAGIVAGLPPAIAHTIEQARQGDLHFLVLLLVAVLVFAVTFFVVFVERGQRRIVVNYAKRQQGRRVYAAQSTHLPLKVNMAGVIPAIFASSIILFPATIASWFGGGTGWNWLTTISLYLQPGQPLYVLLYASAIIFFCFFYTALVFNPRETADNLKKSGAFVPGIRPGEQTAKYIDKVMTRLTLVGALYITFICLIPEFMRDAMKVPFYFGGTSLLIVVVVIMDFMAQVQTLMMSSQYESALKKANLKGYGR [P0AGA2]	4.966 ± 0.022 h		5.77 ± 1 h	4.51 ± 0.048 h	5.24 ± 1 h	3.3 ± 0.39 h	5.04 ± 0.31 h	9.27 ± 3 h	4.83 ± 0.52 h	8.18 ± 0.17 h	4.94 ± 0.68 h	8.06 ± 0.49 h
MKALTARQQEVFDLIRDHISQTGMPPTRAEIAQRLGFRSPNAAEEHLKALARKGVIEIVSGASRGIRLLQEEEEGLPLVGRVAAGEPLLAQQHIEGHYQVDPSLFKPNADFLLRVSGMSMKDIGIMDGDLLAVHKTQDVRNGQVVVARIDDEVTVKRLKKQGNKVELLPENSEFKPIVVDLRQQSFTIEGLAVGVIRNGDWL [P0A7C2]	3.01 ± 0.14 h	2.31 ± 0.15 h	3.18 ± 0.11 h	3.9 ± 0.1 h	3.03 ± 0.12 h	1.91 ± 0.16 h	3.21 ± 0.11 h	4.65 ± 0.17 h	3.25 ± 0.28 h	4.784 ± 0.043 h	2.68 ± 0.22 h	4.77 ± 0.42 h
MTQYWLGLDCGGSWLKAGLYDREGREAGVQRLPLCALSPQPGWAERDMAELWQCCMAVIRALLTHSGVSGEQIVGIGISAQGKGLFLLDKNDKPLGNAILSSDRRAMEIVRRWQEDGIPEKLYPLTRQTLWTGHPVSLLRWLKEHEPERYAQIGCVMMTHDYLRWCLTGVKGCEESNISESNLYNMSLGEYDPCLTDWLGIAEINHALPPVVGSAEICGEITAQTAALTGLKAGTPVVGGLFDVVSTALCAGIEDEFTLNAVMGTWAVTSGITRGLRDGEAHPYVYGRYVNDGEFIVHEASPTSSGNLEWFTAQWGEISFDEINQAVASLPKAGGDLFFLPFLYGSNAGLEMTSGFYGMQAIHTRAHLLQAIYEGVVFSHMTHLNRMRERFTDVHTLRVTGGPAHSDVWMQMLADVSGLRIELPQVEETGCFGAALAARVGTGVYHNFSEAQRDLRHPVRTLLPDMTAHQLYQKKYQRYQHLIAALQGFHARIKEHTL							4.05 ± 1.2 h	7.19 ± 1.2 h				
MRRANDPQRREKIIQATLEAVKLYGIHAVTHRKIATLAGVPLGSMTYYFSGIDELLLEAFSSFTEIMSRQYQAFFSDVSDAPGACQAITDMIYSSQVATPDNMELMYQLYALASRKPLLKTVMQNWMQRSQQTLEQWFEPGTARALDAFIEGMTLHFVTDRKPLSREEILRMVERVAG	5.17 ± 0.91 h	4.84 h	4.98 ± 0.17 h		4.87 ± 0.94 h	2.46 ± 0.18 h	4.6 h	5.18 h	5.11 h	8.57 h	4.06 h	6.17 ± 0.89 h
MTVPTYDKFIEPVLRYLATKPEGAAARDVHEAAADALGLDDSQRAKVITSGQLVYKNRAGWAHDRLKRAGLSQSLSRGKWCLTPAGFDWVASHPQPMTEQETNHLAFAFVNVKLKSRPDAVDLDPKADSPDHEELAKSSPDDRLDQALKELRDAVADEVLENLLQVSPSRFEVIVLDVLHRLGYGGHRDDLQRVGGTGDGGIDGVISLDKLGLEKVYVQAKRWQNTVGRPELQAFYGALAGQKAKRGVFITTSGFTSQARDFAQSVEGMVLVDGERLVHLMIENEVGVSSRLLKVPKLDMDYFE	5.65 ± 1.1 h	4.02 ± 0.13 h	3.84 ± 0.13 h	4.33 ± 0.27 h	3.561 ± 0.012 h	2.94 ± 0.055 h	4.88 ± 0.19 h	10.48 ± 0.072 h	3.599 ± 0.011 h	7.77 ± 3.8 h	4.92 ± 0.1 h	10.4 ± 0.31 h
MAEKQTAKRNRREEILQSLALMLESSDGSQRITTAKLAASVGVSEAALYRHFPSKTRMFDSLIEFIEDSLITRINLILKDEKDTTARLRLIVLLLLGFGERNPGLTRILTGHALMFEQDRLQGRINQLFERIEAQLRQVLREKRMREGEGYTTDETLLASQILAFCEGMLSRFVRSEFKYRPTDDFDARWPLIAAQLQ [P0C093]	6.82 ± 0.62 h		5.04 ± 0.42 h	5.5 ± 0.72 h	4.65 ± 0.39 h	2.5806 ± 0.0014 h	5.49 ± 0.15 h	9.76 ± 1.4 h	4.89 ± 0.97 h	9.106 ± 0.086 h	4.14 ± 0.13 h	7.01 ± 0.77 h
MSFTRRKFVLGMGTVIFFTGSASSLLANTRQEKEVRYAMIHDESRCNGCNICARACRKTNHVPAQGSRLSIAHIPVTDNDNETQYHFFRQSCQHCEDAPCIDVCPTGASWRDEQGIVRVEKSQCIGCSYCIGACPYQVRYLNPVTKVADKCDFCAESRLAKGFPPICVSACPEHALIFGREDSPEIQAWLQQNKYYQYQLPGAGKPHLYRRFGQHLIKKENV	4.71 ± 0.073 h											15.8 h
